How the values were obtained:
[1] = target: K1735 M4 tumor cells (melanoma cells); assay: adhesion of 3H-thymidine-labelled K1735 M4 cells to peptide-coated Immulon plates, 1 h at 37 °C
[2] = target: K1735 M4 tumor cells (melanoma cells); assay: adhesion of 3H-thymidine-labelled K1735 M4 cells to peptide-coated Immulon plates, 1 h at 37 °C; one mole of SSP counted as three chains

Row | peptide concentration at half maximal melanoma cell adhesion [1] [µM] | peptide concentration at half maximal melanoma cell adhesion [2] [µM] | Molecule
1 | 1.12 |  | THP-2, branched triple-helical polypeptide incorporating residues 1263-1277 from α1(IV) collagen
2 | > 100 |  | THP-3, branched triple-helical polypeptide of (Gly-Pro-Hyp)8
3 |  | 170 | GVKGDKGNPGWPGAP [single-stranded peptide (SSP) incorporating residues 1263-1277 from the α1 chain of type IV collagen]
